Experiment [1] deals with protein kinase A (PKA) regulatory subunit RI (human (endogenous in HPAEC)) (UniProt P10644). Nature of the experiment: non-reducing SDS-PAGE with Western blot. In general terms: Immunoblotting shows a protein as a band on a membrane.
In experiment [2] the target is phosphorylated cAMP response element-binding protein (CREB) (human (endogenous in HPAEC)). Nature of the experiment: co-IP.
Chain of phosphorylated cAMP response element-binding protein (CREB) (human (endogenous in HPAEC)) (P16220 whole entry): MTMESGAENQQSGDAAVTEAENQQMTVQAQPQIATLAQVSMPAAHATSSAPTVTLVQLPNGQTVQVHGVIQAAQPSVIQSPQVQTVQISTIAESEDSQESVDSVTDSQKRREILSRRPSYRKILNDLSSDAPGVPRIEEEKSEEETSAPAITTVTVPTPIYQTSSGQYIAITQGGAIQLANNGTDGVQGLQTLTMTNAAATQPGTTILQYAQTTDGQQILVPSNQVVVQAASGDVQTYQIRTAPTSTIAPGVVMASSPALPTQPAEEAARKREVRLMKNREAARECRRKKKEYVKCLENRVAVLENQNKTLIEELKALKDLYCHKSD

“protein kinase A (PKA) regulatory subunit RI (from UniProt P10644 1-381) (natural protein)”: in experiment [1], the fold change of the dimer band, 100 µM H2O2 against 0 µM H2O2 is 3.3 fold.
“redox factor 1 (Ref-1) (from UniProt P27695 1-318) (natural protein)”: the fold change of co-precipitated Ref-1, hypoxia against normoxia in experiment [2] was found to be 1.81 fold.

These data come from paper PMC6395885.
